The values below are quoted from earlier work in publication PMC3416887.

What is called Kd is the constant that tells how readily two partners part at equilibrium.

The target in this data set is FibP (Homo sapiens) (UniProt P02679).

Consider thrombin (from UniProt P00734), for which the equilibrium dissociation constant (Kd) was 630 nM.
